Test results from paper PMC9753469, “Structure and functional mapping of the KRAB‐KAP1 repressor complex” (The EMBO Journal, 2022).

Molecular target: T1, KAP1 RBCC (wild type), SPR analyte (human (by the printed UniProt entry), UniProt Q13263 50-413)
T1 construct: KAP1 (TRIM28) RBCC motif; probably as in Stoll et al, 2019; also called WT KAP1 RBCC; wild-type KAP1; source: E. coli BL21(DE3)
Assay: SPR; Biacore T200, CM5 chip; MBP-KRAB immobilised (about 300 RU ZNF93 WT, 600 RU E35R); KAP1 RBCC flowed, 1:2 dilution series from 40 μM; 20 mM HEPES pH 8.0, 0.5 M NaCl, 0.5 mM TCEP, 20°C; biphasic kinetic model
Details: both partners purified

T1 sequence (Q13263 50-413): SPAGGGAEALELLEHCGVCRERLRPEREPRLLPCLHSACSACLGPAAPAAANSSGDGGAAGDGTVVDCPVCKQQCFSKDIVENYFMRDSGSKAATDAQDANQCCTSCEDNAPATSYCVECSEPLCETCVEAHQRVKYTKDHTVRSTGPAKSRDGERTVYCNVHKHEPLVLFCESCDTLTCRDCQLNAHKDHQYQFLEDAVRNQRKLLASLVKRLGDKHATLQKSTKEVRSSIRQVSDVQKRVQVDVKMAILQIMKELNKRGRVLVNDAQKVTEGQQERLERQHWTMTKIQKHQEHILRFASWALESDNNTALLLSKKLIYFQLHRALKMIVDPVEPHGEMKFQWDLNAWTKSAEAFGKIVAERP

B1: MBP-KRAB (ZNF93 KRAB, wild type) (domain or fragment)
chain: not shown
notes: ZNF93, human, residues 2-71 (KRAB domain); The purification of MBP-KRAB alone is not described; also called ZNF93 WT; source: E. coli BL21(DE3); not shown: MBP, N-terminal, kept
A Kd of 7.5 nM was found for B1 in this work.

B2: MBP-KRAB (ZNF93 KRAB E35R) (domain or fragment)
chain: not shown
notes: ZNF93, human, residues 2-71 (KRAB domain), E35R; also called ZNF93 E35R; source: E. coli BL21(DE3); not shown: MBP, N-terminal, kept
A Kd of 198 nM was found for B2 in this work.
